In the supplement of paper PMC10567573:

B1: INTS3 (parent)
chain: AQLQALRQKEVDFCISLLRERFME

Variants of: B1
Assay: protein stability index of a GFP-peptide fusion (GPS, HEK-293T) (PSI 1-6); higher = more stable
Details: c terminus: a fixed tail appended
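Further: lentivirally expressed fusions sorted by FACS into six bins by GFP to DsRed ratio, PSI derived from sequencing read proportions per bin multiplied by bin number.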

Variant	protein stability index
AQLQSLRQKEVDFCISLLRERFME [A5S]	2.33
AQLQTLRQKEVDFCISLLRERFME [A5T]	1.65
AQLQKLRQKEVDFCISLLRERFME [A5K]	1.92
AQLQALRQKEVDFCISLVRERFME [L18V]	3.22
AQLQALRQKEVDFCISLSRERFME [L18S]	1.87
AQLQALRQKEVDFCISLYRERFME [L18Y]	3.92
AQLQALRQKEVDFCISLARERFME [L18A]	1.7
AQLQALRQKEVDFCISLNRERFME [L18N]	1.97
AQLQALRQKEVDFCWSLLRERFME [I15W]	2.07
AQLQALRQKEVDFCDSLLRERFME [I15D]	2.54
AQLQALRQKEVDFCMSLLRERFME [I15M]	1.17
AQLHALRQKEVDFCISLLRERFME [Q4H]	3.32
AQLWALRQKEVDFCISLLRERFME [Q4W]	3.64
AQLPALRQKEVDFCISLLRERFME [Q4P]	1.5
AQLLALRQKEVDFCISLLRERFME [Q4L]	2.45
AQLGALRQKEVDFCISLLRERFME [Q4G]	2.13
AQLQALLQKEVDFCISLLRERFME [R7L]	2.24
AQLQALHQKEVDFCISLLRERFME [R7H]	2.84
AQLQALNQKEVDFCISLLRERFME [R7N]	2.35
AQLQALFQKEVDFCISLLRERFME [R7F]	2.46
AQLQALDQKEVDFCISLLRERFME [R7D]	1.65
AQNQALRQKEVDFCISLLRERFME [L3N]	1.55
AQHQALRQKEVDFCISLLRERFME [L3H]	1.41
AQTQALRQKEVDFCISLLRERFME [L3T]	1.44

Variant	protein stability index
AQIQALRQKEVDFCISLLRERFME [L3I]	2.87
AQKQALRQKEVDFCISLLRERFME [L3K]	1.5
AQWQALRQKEVDFCISLLRERFME [L3W]	2.71
AQLQALRQKEYDFCISLLRERFME [V11Y]	2.73
AQLQALRQKEGDFCISLLRERFME [V11G]	1.72
AQLQALRQKEFDFCISLLRERFME [V11F]	2.1
AQLQALRQKETDFCISLLRERFME [V11T]	1.81
AQLQALRQKEVDFPISLLRERFME [C14P]	2.03
AQLQALRQKEVDFRISLLRERFME [C14R]	2.16
AQLQALRQKEVDFCISSLRERFME [L17S]	1.22
AQLQALRQKEVDFCISVLRERFME [L17V]	3.89
AQLQALRQKEVDFCISRLRERFME [L17R]	2.08
AQLQALRQKEVDFCISLLRERFVE [M23V]	5.11
AQLQALRQKEVDFCISLLRECFME [R21C]	2.58
AQLQALRQKEVDFCISLLREFFME [R21F]	1.36
AQLQALRQKEVDFCISLLREHFME [R21H]	2.91
AQLQALRQKEVDFCISLLREMFME [R21M]	2.09
AQLQALRQKEVDFCISLLRENFME [R21N]	2.7
AQLQALRQKEVDFCISLLREAFME [R21A]	2.41
AQLQALRQKSVDFCISLLRERFME [E10S]	3.14
AQLQALRQKDVDFCISLLRERFME [E10D]	1.04
AQLQALRQKEVDFCISLLLERFME [R19L]	2.02
AQLQALRQKEVDFCISLLKERFME [R19K]	1.2
AQLQALRQKEVDFCISLLFERFME [R19F]	1.87

Variant	protein stability index
AQLQALRQKEVDFCISLLDERFME [R19D]	1.57
AQLQALRQKEVDFCISLLEERFME [R19E]	1
AQLQALRQKEVDFCISLLRERCME [F22C]	1.19
AQLQANRQKEVDFCISLLRERFME [L6N]	1.97
AQLQACRQKEVDFCISLLRERFME [L6C]	3.33
AQLQASRQKEVDFCISLLRERFME [L6S]	2.14
AQLQARRQKEVDFCISLLRERFME [L6R]	2.02
AQLQAFRQKEVDFCISLLRERFME [L6F]	2.59
AQLQAPRQKEVDFCISLLRERFME [L6P]	2.25
AQLQAGRQKEVDFCISLLRERFME [L6G]	1.98
AQLQALRQKEVDFCIRLLRERFME [S16R]	3.39
AQLQALRQKEVDFCIGLLRERFME [S16G]	3.67
AQLQALRQKEVDFCIQLLRERFME [S16Q]	3.15
AQLQALRQKEVDFCIILLRERFME [S16I]	2.38
AYLQALRQKEVDFCISLLRERFME [Q2Y]	3.15
AMLQALRQKEVDFCISLLRERFME [Q2M]	3.7
AFLQALRQKEVDFCISLLRERFME [Q2F]	2.63
APLQALRQKEVDFCISLLRERFME [Q2P]	2.38
AELQALRQKEVDFCISLLRERFME [Q2E]	1.48
VQLQALRQKEVDFCISLLRERFME [A1V]	2.85
PQLQALRQKEVDFCISLLRERFME [A1P]	3.68
MQLQALRQKEVDFCISLLRERFME [A1M]	2.4
RQLQALRQKEVDFCISLLRERFME [A1R]	2.08
LQLQALRQKEVDFCISLLRERFME [A1L]	1.61

Variant	protein stability index
DQLQALRQKEVDFCISLLRERFME [A1D]	2.11
AQLQALRQKEVDHCISLLRERFME [F13H]	1.95
AQLQALRQKEVDKCISLLRERFME [F13K]	2.9
AQLQALRQKEVDECISLLRERFME [F13E]	1.66
AQLQALRVKEVDFCISLLRERFME [Q8V]	3.32
AQLQALRKKEVDFCISLLRERFME [Q8K]	1.65
AQLQALREKEVDFCISLLRERFME [Q8E]	1.91
AQLQALRQCEVDFCISLLRERFME [K9C]	2.98
AQLQALRQEEVDFCISLLRERFME [K9E]	2.18
AQLQALRQREVDFCISLLRERFME [K9R]	2.32
AQLQALRQNEVDFCISLLRERFME [K9N]	1.93
AQLQALRQSEVDFCISLLRERFME [K9S]	2.29
AQLQALRQTEVDFCISLLRERFME [K9T]	2.45
AQLQALRQQEVDFCISLLRERFME [K9Q]	3.5
AQLQALRQKEVDFCISLLRIRFME [E20I]	3.04
AQLQALRQKEVDFCISLLRERFMY [E24Y]	2.66
AQLQALRQKEVDFCISLLRERFMI [E24I]	2.7
AQLQALRQKEVDFCISLLRERFMQ [E24Q]	1.4
AQLQALRQKEVDFCISLLRERFMM [E24M]	4.47
AQLQALRQKEVHFCISLLRERFME [D12H]	3.57
AQLQALRQKEVGFCISLLRERFME [D12G]	2.1
AQLQALRQKEVWFCISLLRERFME [D12W]	3.08
